Measured values taken from PMC4931238.

What was measured:
[1] = biological target: BG505 SOSIP.664 gp140 trimer (HIV-1 clade A BG505); assay: SEC; Superdex 200 10/300 GL column, after GNL purification
[2] = biological target: gp120Sht-LS (clade-A BG505 gp120 fused to lumazine synthase) (HIV-1 clade A BG505 | Aquifex aeolicus); assay: native gel or EMSA

| Substance | stoichiometry N [1] | stoichiometry N [2] |
| --- | --- | --- |
| BG505 SOSIP.664 gp140 trimer (complex) | 3 | – |
| gp120Sht-LS (clade-A BG505 gp120 fused to lumazine synthase) | – | 5 |
